± gives the standard deviation of the averaged measurements.
Experiments:
[1] = system: MCF7; assay: percentage of EdU-negative (G0-arrested) nuclei per well, 72 h; higher = more G0 arrest; details: reference: sequence is the full UniProt precursor, the tested protein was the secreted form or ectodomain
[2] = system: hTERT-HMEC; assay: as above; details: reference: sequence is the full UniProt precursor, the tested protein was the secreted form or ectodomain
[3] = protein concentration 0.0257143 µM
[4] = protein concentration 0.257143 µM
[5] = protein concentration 0.0322857 µM
[6] = protein concentration 0.0337143 µM
[7] = protein concentration 0.322857 µM
[8] = protein concentration 0.337143 µM
[9] = protein concentration 0.0065 µM
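Note: secreted proteins added to cultured cells, EdU pulse at the end, nuclei found by Hoechst imaging, EdU status from nuclear versus surrounding ring intensity ratio, PBS as neutral control.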

Q: “MAWSLGSWLGGCLLVSALGMVPPPENVRMNSVNFKNILQWESPAFAKGNLTFTAQYLSYRIFQDKCMNTTLTECDFSSLSKYGDHTLRVRAEFADEHSDWVNITFCPVDDTIIGPPGMQVEVLADSLHMRFLAPKIENEYETWTMKNVYNSWTYNVQYWKNGTDEKFQITPQYDFEVLRNLEPWTTYCVQVRGFLPDRNKAGEWSEPVCEQTTHDETVPSWMVAVILMASVFMVCLALLGCFALLWCVYKKTKYAFSPRNSLPQHLKEFLGHPHHNTLLFFSFPLSDENDVFDKLSVIAEDSESGKQNPGDSCSLGTPPGQGPQS” was tested. Which “percentage of EdU-negative” value ([1]; protein concentration 0.034 µM) did it give?
A: 24.3 ± 0.92%

Q: What about the “percentage of EdU-negative” value ([1]; protein concentration 0.34 µM) of the same sequence?
A: 26.5 ± 1.1%

Q: What about the “percentage of EdU-negative” value ([2]; protein concentration 0.034 µM) of the same sequence?
A: 5.95 ± 2.1%

Q: What about the “percentage of EdU-negative” value ([2]; protein concentration 0.34 µM) of the same sequence?
A: 7.32 ± 0.51%

Q: Which results are given for “MVAPKSHTDDWAPGPFSSKPQRSQLQIFSSVLQTSLLFLLMGLRASGKDSAPTVVSGILGGSVTLPLNISVDTEIENVIWIGPKNALAFARPKENVTIMVKSYLGRLDITKWSYSLCISNLTLNDAGSYKAQINQRNFEVTTEEEFTLFVYEQLQEPQVTMKSVKVSENFSCNITLMCSVKGAEKSVLYSWTPREPHASESNGGSILTVSRTPCDPDLPYICTAQNPVSQRSSLPVHVGQFCTDPGASRGGTTGETVVGVLGEPVTLPLALPACRDTEKVVWLFNTSIISKEREEAATADPLIKSRDPYKNRVWVSSQDCSLKISQLKIEDAGPYHAYVCSEASSVTSMTHVTLLIYRRLRKPKITWSLRHSEDGICRISLTCSVEDGGNTVMYTWTPLQKEAVVSQGESHLNVSWRSSENHPNLTCTASNPVSRSSHQFLSENICSGPERNTKLWIGLFLMVCLLCVGIFSWCIWKRKGRCSVPAFCSSQAEAPADTPEPTAGHTLYSVLSQGYEKLDTPLRPARQQPTPTSDSSSDSNLTTEEDEDRPEVHKPISGRYEVFDQVTQEGAGHDPAPEGQADYDPVTPYVTEVESVVGENTMYAQVFNLQGKTPVSQKEESSATIYCSIRKPQVVPPPQQNDLEIPESPTYENFT [Q9HBG7]”?
A: percentage of EdU-negative ([1]; protein concentration 0.02 µM): 25.2 ± 0.84%; percentage of EdU-negative ([1]; protein concentration 0.2 µM): 29.3 ± 0.77%; percentage of EdU-negative ([2]; protein concentration 0.02 µM): 4.82 ± 0.27%; percentage of EdU-negative ([2]; protein concentration 0.2 µM): 7.12 ± 0.12%

Q: “MQKVTLGLLVFLAGFPVLDANDLEDKNSPFYYDWHSLQVGGLICAGVLCAMGIIIVMSAKCKCKFGQKSGHHPGETPPLITPGSAQS” was tested. Which “percentage of EdU-negative” value [1, 3] did it give?
A: 26.4 ± 0.91%

Q: What about the “percentage of EdU-negative” value [1, 4] of the same sequence?
A: 24.9 ± 1%

Q: And the “percentage of EdU-negative” value [2, 3]?
A: 4.87 ± 0.45%

Q: What about the “percentage of EdU-negative” value [2, 4] of the same sequence?
A: 4.969 ± 0.0066%

Q: “MLPPMALPSVSWMLLSCLMLLSQVQGEEPQRELPSARIRCPKGSKAYGSHCYALFLSPKSWTDADLACQKRPSGNLVSVLSGAEGSFVSSLVKSIGNSYSYVWIGLHDPTQGTEPNGEGWEWSSSDVMNYFAWERNPSTISSPGHCASLSRSTAFLRWKDYNCNVRLPYVCKFTD” was tested. Which “percentage of EdU-negative” value [1, 5] did it give?
A: 24.2 ± 2.7%

Q: What about the “percentage of EdU-negative” value [1, 6] of the same sequence?
A: 24.3 ± 1.6%

Q: And the “percentage of EdU-negative” value [1, 7]?
A: 26.7 ± 1.1%

Q: And the “percentage of EdU-negative” value [1, 8]?
A: 27.4 ± 2.9%

Q: What about the “percentage of EdU-negative” value [2, 5] of the same sequence?
A: 5.46 ± 0.53%

Q: What about the “percentage of EdU-negative” value [2, 6] of the same sequence?
A: 5.04 ± 0.18%

Q: What about the “percentage of EdU-negative” value [2, 7] of the same sequence?
A: 7.94 ± 0.33%

Q: What about the “percentage of EdU-negative” value [2, 8] of the same sequence?
A: 6.63 ± 1.3%

Q: Which “percentage of EdU-negative” value [1, 9] does the source give for “MARPVRGGLGAPRRSPCLLLLWLLLLRLEPVTAAAGPRAPCAAACTCAGDSLDCGGRGLAALPGDLPSWTRSLNLSYNKLSEIDPAGFEDLPNLQEVYLNNNELTAVPSLGAASSHVVSLFLQHNKIRSVEGSQLKAYLSLEVLDLSLNNITEVRNTCFPHGPPIKELNLAGNRIGTLELGAFDGLSRSLLTLRLSKNRITQLPVRAFKLPRLTQLDLNRNRIRLIEGLTFQGLNSLEVLKLQRNNISKLTDGAFWGLSKMHVLHLEYNSLVEVNSGSLYGLTALHQLHLSNNSIARIHRKGWSFCQKLHELVLSFNNLTRLDEESLAELSSLSVLRLSHNSISHIAEGAFKGLRSLRVLDLDHNEISGTIEDTSGAFSGLDSLSKLTLFGNKIKSVAKRAFSGLEGLEHLNLGGNAIRSVQFDAFVKMKNLKELHISSDSFLCDCQLKWLPPWLIGRMLQAFVTATCAHPESLKGQSIFSVPPESFVCDDFLKPQIITQPETTMAMVGKDIRFTCSAASSSSSPMTFAWKKDNEVLTNADMENFVHVHAQDGEVMEYTTILHLRQVTFGHEGRYQCVITNHFGSTYSHKARLTVNVLPSFTKTPHDITIRTTTMARLECAATGHPNPQIAWQKDGGTDFPAARERRMHVMPDDDVFFITDVKIDDAGVYSCTAQNSAGSISANATLTVLETPSLVVPLEDRVVSVGETVALQCKATGNPPPRITWFKGDRPLSLTERHHLTPDNQLLVVQNVVAEDAGRYTCEMSNTLGTERAHSQLSVLPAAGCRKDGTTVGIFTIAVVSSIVLTSLVWVCIIYQTRKKSEEYSVTNTDETVVPPDVPSYLSSQGTLSDRQETVVRTEGGPQANGHIESNGVCPRDASHFPEPDTHSVACRQPKLCAGSAYHKEPWKAMEKAEGTPGPHKMEHGGRVVCSDCNTEVDCYSRGQAFHPQPVSRDSAQPSAPNGPEPGGSDQEHSPHHQCSRTAAGSCPECQGSLYPSNHDRMLTAVKKKPMASLDGKGDSSWTLARLYHPDSTELQPASSLTSGSPERAEAQYLLVSNGHLPKACDASPESTPLTGQLPGKQRVPLLLAPKS [Q96JA1]” here?
A: 25.4 ± 1%

Q: What about the “percentage of EdU-negative” value ([1]; protein concentration 0.065 µM) of the same sequence?
A: 25.8 ± 3.1%

Q: And the “percentage of EdU-negative” value [2, 9]?
A: 4.69 ± 0.4%

Q: What about the “percentage of EdU-negative” value ([2]; protein concentration 0.065 µM) of the same sequence?
A: 8.75 ± 1.2%

— the supplement of paper PMC11316812
